From paper PMC2148140

Molecular target: human Erd2p (KDEL receptor) (human) (UniProt P24390)
Experiment: radioligand binding

Chain of UniProt P24390 (P24390 whole entry): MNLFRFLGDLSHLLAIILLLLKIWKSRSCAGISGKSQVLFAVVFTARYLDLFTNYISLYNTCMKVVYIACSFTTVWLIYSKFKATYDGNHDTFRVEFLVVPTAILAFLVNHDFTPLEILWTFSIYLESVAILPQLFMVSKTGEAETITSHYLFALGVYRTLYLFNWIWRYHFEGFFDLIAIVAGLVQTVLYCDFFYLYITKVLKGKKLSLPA

## cholera toxin A subunit (wild-type CTX-A), 125I-labelled (natural protein)
  binding at pH 6 as percent of the binding at pH 5: 60%
